doi:10.1101/2025.11.17.688911

Target: full-length (FL) human MAP9 (GFP::Human MAP9::strepII) (human) (UniProt Q49MG5)
Sequence (Q49MG5 whole entry): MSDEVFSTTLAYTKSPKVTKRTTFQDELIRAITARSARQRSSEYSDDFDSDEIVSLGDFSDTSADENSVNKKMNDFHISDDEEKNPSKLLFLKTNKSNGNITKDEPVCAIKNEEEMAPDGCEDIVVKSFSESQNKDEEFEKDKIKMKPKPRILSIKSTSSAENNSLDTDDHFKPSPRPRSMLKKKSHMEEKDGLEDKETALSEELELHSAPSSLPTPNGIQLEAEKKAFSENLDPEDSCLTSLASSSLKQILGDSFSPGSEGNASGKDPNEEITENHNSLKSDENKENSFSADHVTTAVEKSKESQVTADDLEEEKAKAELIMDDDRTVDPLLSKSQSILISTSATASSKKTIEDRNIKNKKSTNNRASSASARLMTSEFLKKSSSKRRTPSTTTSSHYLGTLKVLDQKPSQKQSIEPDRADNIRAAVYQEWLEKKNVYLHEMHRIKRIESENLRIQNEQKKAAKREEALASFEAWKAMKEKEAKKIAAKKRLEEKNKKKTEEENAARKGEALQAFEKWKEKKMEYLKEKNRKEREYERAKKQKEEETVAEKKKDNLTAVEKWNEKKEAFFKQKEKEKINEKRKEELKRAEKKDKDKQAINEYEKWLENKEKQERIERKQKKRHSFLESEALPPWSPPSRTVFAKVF

**Q.** How did the run frequency of FL KIF1A on MTs decorated with MAP9 at low concentrations (<60 nM); slightly inhibited at higher concentrations turn out when “FL KIF1A (Human KIF1A::yBBR::strepII) (from UniProt Q12756 1-1690) (natural protein)” was run?
**A.** 2 fold
